Reference: patent publication US20140147384A1 (NORDIC NANOVECTOR, published 2014)
Values belong to the molecule of their own block, whether it stands above or below them.

Experiments:
[1] = target: CD20 on living lymphoma cells (Raji, Rael, Daudi) (UniProt P11836); test: immunoreactive fraction, modified Lindmo method on lymphoma cells; 1 experiment
[2] = target: CD20 on living lymphoma cells (Raji, Rael, Daudi) (UniProt P11836); test: immunoreactive fraction, modified Lindmo method on lymphoma cells; mean ± SD of 6 experiments
[3] = target: CD20 on living lymphoma cells (Raji, Rael, Daudi) (UniProt P11836); test: ^125I-labeled antibody on Rael cells, one-step curve fit of specific binding against time and concentration
[4] = target: CD20 on living lymphoma cells (Raji, Rael, Daudi) (UniProt P11836); test: ^125I-labeled antibody on Raji cells, one-step curve fit of specific binding against time and concentration
[5] = target: T1, human CD37 on living lymphoma cells (Raji, Rael, Daudi) (human, UniProt P11049 1-281); test: ^125I-labeled antibody on Rael cells, one-step curve fit of specific binding against time and concentration
T1 construct: whole, on cells; Target of HH1 and of the three bought anti-CD37 antibodies on cell lines; also called CD37 antigen
T1 sequence (looked up): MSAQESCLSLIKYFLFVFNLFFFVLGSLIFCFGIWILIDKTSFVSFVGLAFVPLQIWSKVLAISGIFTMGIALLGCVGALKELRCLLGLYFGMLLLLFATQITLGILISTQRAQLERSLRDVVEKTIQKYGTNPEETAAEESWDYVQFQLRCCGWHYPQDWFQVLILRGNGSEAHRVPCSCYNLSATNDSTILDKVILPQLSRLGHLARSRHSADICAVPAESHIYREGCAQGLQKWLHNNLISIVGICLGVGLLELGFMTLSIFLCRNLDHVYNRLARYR
Description: (§1) The association rate constant, kₐ, the equilibrium dissociation constant, Kd, and the mean number of binding sites, Bₘₐₓ, was determined by a one-step curve fitting method (Dahle et al. 2007). The binding parameters were measured for HH1 and rituximab and for three different lymphoma cell lines; Raji, Rael and Daudi cells (Table 2). Specific binding was measured as a function of time and antibody concentration, and the solution of the differential equation describing the net rate of formation of the antigen-antibody complex was fitted to the experimental data points using the association rate constant, kₐ, the equilibrium dissociation constant, Kd, and the mean number of binding sites, Bₘₐₓ, as parameters. Five million cells pr ml were used, four concentrations of ¹²⁵I-labeled antibody (100 ng/ml, 1000 ng/ml, 5000 ng/ml and 10000 ng/ml) and 7 incubation time points (5 min, 10 min, 20 min, 30 min, 1 h, 1.5 h and 2 h). After incubation, cells were washed twice with PBS, and then counted in a gamma counter.

[6] = target: T1, human CD37 on living lymphoma cells …; test: ^125I-labeled antibody on Raji cells, one-step curve fit of specific binding against time and concentration
Description: as §1

[7] = target: T1, human CD37 on living lymphoma cells …; test: ^125I-labeled antibody on Daudi cells, one-step curve fit of specific binding against time and concentration
Description: as §1

CD20 on living lymphoma cells (Raji, Rael, Daudi), sequence (P11836 whole entry): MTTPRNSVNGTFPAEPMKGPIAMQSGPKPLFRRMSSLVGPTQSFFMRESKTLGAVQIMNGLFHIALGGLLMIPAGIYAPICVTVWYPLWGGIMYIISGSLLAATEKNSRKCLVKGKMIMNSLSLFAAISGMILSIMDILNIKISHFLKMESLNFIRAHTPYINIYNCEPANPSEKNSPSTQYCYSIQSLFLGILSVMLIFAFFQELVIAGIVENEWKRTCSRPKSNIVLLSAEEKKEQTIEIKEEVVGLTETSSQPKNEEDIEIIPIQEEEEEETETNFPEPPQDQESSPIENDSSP

IRF (%) [1]: 45%
Molecule: ^111In-rituximab (antibody)

IRF (%), mean [2]: 62%
Bmax(Ag/cell) [3]: 626000 Ag/cell
Kd [3]: 12 nM
Bmax(Ag/cell) [4]: 272000 Ag/cell
Kd [4]: 4.8 nM
Molecule: ^125I-rituximab (antibody)

IRF (%) [1]: 60%
Molecule: ^177Lu-rituximab (antibody)

Kd [5]: 12.7 nM
Kd [6]: 6.3 nM
Kd [7]: 2.7 nM
B1: ^125I-labeled HH1 (antibody, V domains shown)
VH: EIQLQQSGPELVKPGASVKVSCKASGYSFTDYNMYWVKQSHGKSLEWIGYIDPYNGDTTYNQKFKGKATLTVDKSSSTAFIHLNSLTSEDSAVYYCARSPYGHYAMDYWGQGTSVTVSS
VL: DIVMTQSHKLLSTSVGDRVSITCKASQDVSTAVDWYQQKPGQSPKLLINWASTRHTGVPDRFTGSGSGTDYTLTISSMQAEDLALYYCRQHYSTPFTFGSGTKLEIK
modifications: ^125I by indirect iodination with IODOGEN tubes; chain and residues not stated
